Measured values taken from the supplement of paper PMC10126150.
± gives the standard deviation of the averaged measurements.

System: ATP
Experiment: switch fluorescence ratio, 500 uM ATP over buffer (Cy3 cluster intensity, sum of 5 cycles each) (fold (ratio)); higher = stronger signal-on switching upon ATP binding; sequences stand for … in TCGTCGGCAGCGTCAGATGTGTATAAGAGACAGTTTTTTTTTTTTTTTTTTTTTTTTT…TC
Details: aptamer strand: ATP DNA aptamer (quencher-CACCTGGGGGAGTATTGCGGAGGAAGG + anchor), 100 nM annealed; ATP concentration: 500 uM
How it was run: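 Five buffer/ATP imaging cycles were run on Cy3-labelled switching-strand clusters on a modified Illumina MiSeq flow-cell, with NaOH stripping and re-annealing between cycles. In each cycle, clusters annealed to 100 nM quencher-labelled ATP aptamer were imaged in selection buffer, then after 15 min with 500 uM ATP at 22 °C. Per cluster, the fluorescence ratio is summed target-cycle over summed buffer-cycle Cy3 intensity, averaged per switch-domain sequence. Only clusters within 100-1000 RFU were kept.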
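Further: ATP exposure 15 min at 22 °C before imaging.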

Compared with TTAAAGAATT, TTATTGTAAG is lower in switch fluorescence ratio: 1.003 ± 0.0084 for the first, 0.9675 ± 0.006 for the second.

TGCTTGTGTT and GGGACCGAAT are within error of each other in switch fluorescence ratio: 0.9912 ± 0.0064 for the first, 1.004 ± 0.0056 for the second.

ACACCCTTGG and GCTGTATTAA are within error of each other in switch fluorescence ratio: 1.08 ± 0.098 for the first, 0.997 ± 0.038 for the second.

Compared with TAGATGACGG, CGGAACGCTC is higher in switch fluorescence ratio: 1.01 ± 0.041 for the first, 1.71 ± 0.025 for the second.

TAACGGCGCG and CGATAGGGGT are within error of each other in switch fluorescence ratio: 1.028 ± 0.0024 for the first, 1.05 ± 0.074 for the second.

CCTGAGGTTC and TTTTAGGGCG are within error of each other in switch fluorescence ratio: 1.03 ± 0.061 for the first, 0.976 ± 0.048 for the second.

Going from GCATGCATTG to GCATTAGGTT, the switch fluorescence ratio rises from 0.97797 ± 0.0001 to 1.03 ± 0.019.

CCGGGGGATT and TAACGGGGTT are within error of each other in switch fluorescence ratio: 1.4 ± 0.49 for the first, 0.9826 ± 0.00097 for the second.

TTCGGCTGGG and ATCAATTTAG are within error of each other in switch fluorescence ratio: 0.98 ± 0.034 for the first, 1.02 ± 0.038 for the second.

TGGTAGGGG and AACGGTGGGG are within error of each other in switch fluorescence ratio: 1.01 ± 0.016 for the first, 0.992 ± 0.034 for the second.

First: TAAAGCGTAG
Second: CTGCGGGTGC
The switch fluorescence ratio of the first is lower: 0.998 ± 0.027 for the first, 1.31 ± 0.2 for the second.

ACTTTCGGGA and CGAGTGCCCA are within error of each other in switch fluorescence ratio: 0.995 ± 0.011 for the first, 0.996 ± 0.033 for the second.

TGGGAACGTC and TTTTTTTCAG are within error of each other in switch fluorescence ratio: 1.0205 ± 2.8e-05 for the first, 1.01 ± 0.016 for the second.

TGACGGGGGG and TGTAAATGGG are within error of each other in switch fluorescence ratio: 1.06 ± 0.12 for the first, 0.984 ± 0.024 for the second.

TGGGGGTAAT and GATAGAAGGT are within error of each other in switch fluorescence ratio: 0.992 ± 0.029 for the first, 1.04 ± 0.056 for the second.

GTGGGAAAGT and GGCGTCTTTG are within error of each other in switch fluorescence ratio: 1.04 ± 0.015 for the first, 1.019 ± 0.0091 for the second.

AATTGGCGTA and GGGGCAGCTG are within error of each other in switch fluorescence ratio: 1.01 ± 0.034 for the first, 1.06 ± 0.08 for the second.

TAAAAATTTA and TTCTTAGAGT are within error of each other in switch fluorescence ratio: 1.01 ± 0.048 for the first, 1.02 ± 0.016 for the second.

Compared with AGGGGTATCT, TAACACTAGC is higher in switch fluorescence ratio: 0.9739 ± 0.007 for the first, 1.011 ± 0.0037 for the second.

First: AGGGTATGTT
Second: GCTGTAATCT
The switch fluorescence ratio of the first is lower: 0.9682 ± 0.004 for the first, 0.999 ± 0.027 for the second.

ATGTAAACGC and TCATTCCATT are within error of each other in switch fluorescence ratio: 1.03 ± 0.038 for the first, 0.988 ± 0.031 for the second.

Going from GTCATATGTC to AACTCGTGGG, the switch fluorescence ratio falls from 1.07 ± 0.051 to 0.975 ± 0.026.

TCTTAAAAT and AGGGGATTGG are within error of each other in switch fluorescence ratio: 1.006 ± 0.0097 for the first, 0.991 ± 0.015 for the second.

ATCGCGACTA and GGGGGATTGT are within error of each other in switch fluorescence ratio: 1.05 ± 0.036 for the first, 1.02 ± 0.043 for the second.

Compared with TGTAATCTTC, AGGGGACTTT is lower in switch fluorescence ratio: 1.01 ± 0.016 for the first, 0.978 ± 0.013 for the second.

TATCGGGTGG and AGGAATAAAC are within error of each other in switch fluorescence ratio: 1.01 ± 0.097 for the first, 1.02 ± 0.013 for the second.

CCCGAGTGGG and TGGGTATTGG are within error of each other in switch fluorescence ratio: 0.992 ± 0.054 for the first, 1 ± 0.03 for the second.

GTGGTGTTTT and TTGGAGGAAA are within error of each other in switch fluorescence ratio: 1 ± 0.015 for the first, 1.09 ± 0.13 for the second.

GGGTGGGCGG and AACGCATGTG are within error of each other in switch fluorescence ratio: 0.974 ± 0.022 for the first, 1 ± 0.039 for the second.

CGGTACTTGG and CCAAGCCTGT are within error of each other in switch fluorescence ratio: 0.967 ± 0.05 for the first, 1.007 ± 0.0098 for the second.

GCCAATTTGC and TTTGGTCGGA are the same in switch fluorescence ratio: 1.02 ± 0.07 for the first, 1.019 ± 0.0039 for the second.

TTAAGATGGG and CAATTTGTGT are within error of each other in switch fluorescence ratio: 0.996 ± 0.025 for the first, 0.983 ± 0.012 for the second.

AGGGTCAGGG and TTTTGCACGG are within error of each other in switch fluorescence ratio: 1.01 ± 0.04 for the first, 1.04 ± 0.0077 for the second.

GGGGTAGTTA and TGGACTGGGG are within error of each other in switch fluorescence ratio: 0.9743 ± 0.0066 for the first, 0.9861 ± 0.0056 for the second.

AGATGTAGTG and AGTTTTTTAT are within error of each other in switch fluorescence ratio: 0.9948 ± 0.0036 for the first, 1 ± 0.022 for the second.

CGGGCTTGGT and AAGTAAAAAT are within error of each other in switch fluorescence ratio: 1.01 ± 0.032 for the first, 1.05 ± 0.036 for the second.

TTGGGGAGAT and GGGGGATGGT are within error of each other in switch fluorescence ratio: 0.989 ± 0.014 for the first, 0.978 ± 0.035 for the second.

GATAACGAAG and CGCCGCGTCA are within error of each other in switch fluorescence ratio: 1.008 ± 0.006 for the first, 1 ± 0.038 for the second.

TGAGTTAGGG and CGAATGGGGA are within error of each other in switch fluorescence ratio: 0.985 ± 0.017 for the first, 0.992 ± 0.077 for the second.

GGGCCCATTG and GGTACGGGGT are within error of each other in switch fluorescence ratio: 0.963 ± 0.04 for the first, 1 ± 0.028 for the second.

First: CCACACCATT
Second: AGTAACGGTA
The switch fluorescence ratio of the first is higher: 1.058 ± 0.004 for the first, 1.04 ± 0.012 for the second.

GGTGGGTGTG and TGAGATGCGG are within error of each other in switch fluorescence ratio: 1 ± 0.036 for the first, 1.03 ± 0.038 for the second.

GAATCAAAAA and CCAGAACGAA are within error of each other in switch fluorescence ratio: 1 ± 0.088 for the first, 1.037 ± 0.0099 for the second.

First: CGGTAGACCT
Second: AAAAAAATTG
The switch fluorescence ratio of the first is higher: 1.105 ± 0.0037 for the first, 1 ± 0.017 for the second.

GGTGTGTGAG and ACATCTTCGA are within error of each other in switch fluorescence ratio: 0.965 ± 0.01 for the first, 0.97 ± 0.046 for the second.

AGGGGTGTTT and CGCGACTGGT are within error of each other in switch fluorescence ratio: 0.999 ± 0.039 for the first, 0.994 ± 0.014 for the second.

CTAAGGCGGG and TAATTTCTAC are the same in switch fluorescence ratio: 1.013 ± 0.0072 for the first, 1.005 ± 0.0054 for the second.

First: TGTTATTGGC
Second: GATTTTAATG
The switch fluorescence ratio of the first is higher: 1.08 ± 0.084 for the first, 0.981 ± 0.013 for the second.

TGAAGATTTT and TGGATAAGCG are within error of each other in switch fluorescence ratio: 0.9704 ± 0.0081 for the first, 1 ± 0.032 for the second.

Going from TAAGAGCGTA to TTGGCGTTTT, the switch fluorescence ratio rises from 1.0055 ± 0.00049 to 1.04 ± 0.026.
